The text below walks through data of publication PMC2268108 (The Journal of General Physiology, 2005).

Where a chain is given by its changes, count along the chain named. In names and notes the source's numbering stands.

Data set [1] concerns the molecule itself. Nature of the data set: single-molecule fluorescence.
Data set [2] deals with the molecule itself. As to the kind of experiment: single-molecule fluorescence. The source holds these as a separate data set.
The data set “SDS-PAGE of the tetramer” deals with the molecule itself. As to the kind of experiment: SDS-PAGE of the tetramer.
The data set “cross-linking” concerns the molecule itself. Nature of the data set: cross-linking.

B1: pig gastric H/K-ATPase (αβ protomer), FITC-modified (complex)
chain 1: not shown
chain 2: MAALQEKKSCSQRMEEFQRYCWNPDTGQMLGRTLSRWVWISLYYVAFYVVMSGIFALCIYVLMRTIDPYTPDYQDQLKSPGVTLRPDVYGEKGLDISYNVSDSTTWAGLAHTLHRFLAGYSPAAQEGSINCTSEKYFFQESFLAPNHTKFSCKFTADMLQNCSGRPDPTFGFAEGKPCFIIKMNRIVKFLPGNSTAPRVDCAFLDQPRDGPPLQVEYFPANGTYSLHYFPYYGKKAQPHYSNPLVAAKLLNVPRNRDVVIVCKILAEHVSFDNPHDPYEGKVEFKLKIQK
Regarding B1, the stoichiometry N (in general, the number of molecules, sites or subunits per partner or assembly) is 2 in data set [1] and 4 in data set [2].

B2: KcsA T75C (natural protein)
chain: MPPMLSGLLARLVKLLLGRHGSALHWRAAGAATVLLVIVLLAGSYLAVLAERGAPGAQLITYPRALWWSVETATCVGYGDLYPVTLWGRLVAVVVMVAGITSFGLVTAALATWFVGREQERRGHFVRHSEKAAEEAYTRTTRALHERFDRLERMLDDNRR
Regarding B2, the binding result in the data set “SDS-PAGE of the tetramer” is on record as “binds”.

B3: KcsA Thr75 to Ala (natural protein)
chain: B2 chain with C75A
Consider B3, for which, in “SDS-PAGE of the tetramer”, the binding result is on record as “binds”.

B4: KdpFABC complex from Escherichia coli (complex)
chain 1: MSAGVITGVLLVFLLLGYLVYALINAEAF
chain 2: MAAQGFLLIATFLLVLMVLARPLGSGLARLINDIPLPGTTGVERVLFRALGVSDREMNWKQYLCAILGLNMLGLAVLFFMLLGQHYLPLNPQQLPGLSWDLALNTAVSFVTNTNWQSYSGETTLSYFSQMAGLTVQNFLSAASGIAVIFALIRAFTRQSMSTLGNAWVDLLRITLWVLVPVALLIALFFIQQGALQNFLPYQAVNTVEGAQQLLPMGPVASQEAIKMLGTNGGGFFNANSSHPFENPTALTNFVQMLAIFLIPTALCFAFGEVMGDRRQGRMLLWAMSVIFVICVGVVMWAEVQGNPHLLALGTDSSINMEGKESRFGVLVSSLFAVVTTAASCGAVIAMHDSFTALGGMVPMWLMQIGEVVFGGVGSGLYGMMLFVLLAVFIAGLMIGRTPEYLGKKIDVREMKLTALAILVTPTLVLMGAALAMMTDAGRSAMLNPGPHGFSEVLYAVSSAANNNGSAFAGLSANSPFWNCLLAFCMFVGRFGVIIPVMAIAGSLVSKKSQAASSGTLPTHGPLFVGLLIGTVLLVGALTFIPALALGPVAEYLS
chain 3: MSRKQLALFEPTLVVQALKEAVKKLNPQAQWRNPVMFIVWIGSLLTTCISIAMASGAMPGNALFSAAISGWLWITVLFANFAEALAEGRSKAQANSLKGVKKTAFARKLREPKYGAAADKVPADQLRKGDIVLVEAGDIIPCDGEVIEGGASVDESAITGESAPVIRESGGDFASVTGGTRILSDWLVIECSVNPGETFLDRMIAMVEGAQRRKTPNEIALTILLIALTIVFLLATATLWPFSAWGGNAVSVTVLVALLVCLIPTTIGGLLSAIGVAGMSRMLGANVIATSGRAVEAAGDVDVLLLDKTGTITLGNRQASEFIPAQGVDEKTLADAAQLASLADETPEGRSIVILAKQRFNLRERDVQSLHATFVPFTAQSRMSGINIDNRMIRKGSVDAIRRHVEANGGHFPTDVDQKVDQVARQGATPLVVVEGSRVLGVIALKDIVKGGIKERFAQLRKMGIKTVMITGDNRLTAAAIAAEAGVDDFLAEATPEAKLALIRQYQAEGRLVAMTGDGTNDAPALAQADVAVAMNSGTQAAKEAGNMVDLDSNPTKLIEVVHIGKQMLMTRGSLTTFSIANDVAKYFAIIPAAFAATYPQLNALNIMCLHSPDSAILSAVIFNALIIVFLIPLALKGVSYKPLTASAMLRRNLWIYGLGGLLVPFIGIKVIDLLLTVCGLV
chain 4: MSGLRPALSTFIFLLLITGGVYPLLTTVLGQWWFPWQANGSLIREGDTVRGSALIGQNFTGNGYFHGRPSATAEMPYNPQASGGSNLAVSNPELDKLIAARVAALRAANPDASASVPVELVTASASGLDNNITPQAAAWQIPRVAKARNLSVEQLTQLIAKYSQQPLVKYIGQPVVNIVELNLALDKLDE
As to B4, the “stoichiometry N” value in “cross-linking” was 2.
